Our source for the protease stability score values is the NTF2 design screens of Basanta et al. (2020).

The nature of the data set: protease stability score; higher = more stable; yeast display proteolysis, trypsin and chymotrypsin.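 Note: log10 excess protease needed over predicted unfolded state with 0 meaning unfolded.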
With “DEEELEKINQLIKTNDFQQLRQDADPNVQVEYGDKSYHGRENLTKNMREFEKMVDHVQLKDYRVKGEKLEADMVATVNGREIRFTLSMNVHNGKIKQISLKYRNEDQKRRMEEALN”, the protease stability score was 0.922.

Sequence “DEHAKKRLEEWLRNRQQGDDERLVQMADPNVRIEYGDKSFKGRDDVREWAQKESKSMDLQLKSVDLKVSGDKVDAKITFTQDENGKPDHATMNLVMKQDNGHIKVLRYEVTK” gave a protease stability score of 0.084.

In the case of “DEEANKNMKDMWRTGDWKQIAENADEDAHYQVGDKKFSGREQVQTFIELLQNRVDDQNIRDMEDKGNEIDIEFTVVINGRKLVLHATVQAHNGRVKSWTVKVTDRDDKRKLDEALR”, the protease stability score stood at 0.307.

“DETDKAQKQFEHYERIAHTGDPDEMQRQADENARVEYGDKEVRGRKDVKKWAKDIKDTVDSVEFDIKSFEVQGDKITINVNIVYRSDGRQQSMEVNMVFDVRGDDIQIRSMKFR” displayed a protease stability score of 0.434.

Sequence “DEDFWERVESMLRLWKHGNEDEWSKNADPNVRYVYGEKVVTGREQAKHMFRKVKDEIRFTFEFKRVRIQGDTIEAKFEFRADRNGKPRSANATVTIRFEGDKVHDNDVKSQS” came in with a protease stability score of 0.42.

Regarding “DEENLHRRAEQFVKALEHGDQHQFRRMFDENARVEVGDKFFHGREEVARFMRDLTRRIDHVQFRRMEVRGEKIIVKAEAHVNGKRVTIIFDLTVKNGRIKHVRITFTDEKDRREFER”, the protease stability score stood at 1.12.

Sequence “DEHLLKEAEKHLKQIERGNPDEAVKMVDPNAKFHIGDKTIHGREHWREWVERQVKDQRFKIRLDDMEDHNGKLVLEVTATYDINGKPVTLTVRWEFDIHNGRAQSVRVQVDPKQQEDLKR” had a protease stability score of 0.535.

“DEDAFRVWRRLLSAIRDGDEDKVRNQADENATATIGDKTWHGMTTLAHELVHEARNLRFTQRITHYSVDNGRVNADYRFTKNENGRPQEDRVLVRFVAHNGQLKSVHNTKIS”: the protease stability score worked out at 0.131.

“DEDLRRQAETMVDNINTNNERELEKLFDPNVHVVVGDRRINGTEHLRDYWRRIRDHMRLEVNLRRISVHNGKISAHVDVVREHNGKPDEDTFRMSAVVRNGKFHKMRVEKDG”: the protease stability score worked out at 1.37.

“EEELLERIKTFVKVYEHGDFKRLHRNLDKDVRVVVGDKHVRGREEAVRDMSEELRNMDQKIDFKTMHITNGKANLDFHFQNTVNGQPRRDRAHLIIRLHNGKFQEIKIQFSEEQERRQKG”: the protease stability score was 0.608.

For “EEHVMRIVTNQLEAIKHGDEDRVRDLADPNARFHVGDKSIHGMEKYANDLRSEMEHMQVEFNLQSVTVEGDKVVITFEAQFNQNGKPKNYREVFRVEAQGDKIKDYRQERKD”, the protease stability score turned out to be 0.001.

On to “DEKEAEHVSRLVRENDFQTLRDQADKDARVRIGDREVHGRERLRSQLHKLERRIDSLEVHRVNNHPNHFHVDVVITVNGQKVTFRLNIHVHNGRIKSIEIEFTDEDQKRNMNEVFS”, for which the protease stability score was -0.081.

In the case of “DEKKVEQAEQWIRNLQTGDPDKANDMFDPNAEITVGDHVVHGREEFKDRMEKDMRNMRIKFEDVHASVKNGRVTVSVDQVDTNNGKPKRYRYNLTIDLRNGKVTEIVNKEDK”, the protease stability score was found to be 0.066.

In turn, “DDEKRASKFAKKLVDAFKHGDPDRFSRMVDENVRFQVGDTQYHGREDAHNLMQELRDKVDHIHVRLTQLEVKGDKADVHMNLQYKHNGKNNDVRMRAVATDNNGRLLVTHFRIN” yielded a protease stability score of 1.26.

Take “DETELRKMQEVQEHNDPDEWKKQADKDVRLKVGNKRLHGREDVHRYLKTHRDQADHIRYKSFDFDGDKADITFHAVVNGRTFEANQEIRIHNGRIQEVNIHYTDDQVQRELEELFG”: the protease stability score was -0.195.

Turning to “EHENVRLARSLIDALQQNNPQQAQENADKDVQYEVGEKRIHGREQYSDTMRKNKEQMEFRVHSVDMDEHNGRVTVNLTFIESTNGDPKQDRANLVIEFHNGRIQHVRMSKDG”, the protease stability score was -0.268.

For the sequence “DEEELKHLMKVQTTGDPDKYEEMADKDVKAKIGDETYHGRETVLTQLRRMLTQIDHLEVKNVDTQGDKVNLRAVANYNGQELDVIYVLVVHNGRVDNMEIDARDEKVEDQLRQAMS”, the protease stability score is -0.348.

Consider “DEHIQKQFQKILEAINQNNPEQFRRLVDKHAQITIGDEVVHGRDDAVRTLEKKMREMKVEIEVDSVNVQGEKLTATLKVELDINGKPNTDTVVVQMRAENGKLKSAHYRVDPTTRRKVKS”, for which the protease stability score is -0.179.

“DDDEARHRAEEIVRQMQSNNWKDIDKLMDKNVQIRVGDKRYTGRTRARKFIKTIADRVDHAHVVNVTVQGNKARFEFIARFDGEHVRMQMVFELHNGHAKKVEVDPEELKQLKK” returned a protease stability score of 1.04.

“DEEKKARQLLKRWLRAVSQNDPKKLSEQMDPNARVEYGDKELHGMHQIENWLREQLKHIDHIEIDVKDMTVNGNEAQVQFRFVNRHNGKEDTKEARMQAELHNGTVKVRRIRYS”: the protease stability score came out at 0.389.

“DEENKKRFDKFQEVQKQGDPKQLQSLMDPNVEWRVGDKNYHGRQEIAKDRIRVQREIRIEFNITHYENHNGRVKIHAEAKAKVNGRPQTYDYSFEVVVHNGKIKELNWRVDPEEVDRIES” showed a protease stability score of 0.67.

Turning to “DDRHLQQLASIAAKALRTGNPKDMKKLVDPNAKMHYGDKEVHGREQMADVLRRIRRDADHIDLRSYSADNGRISIDMDLRVNGKKVRIIVKAEVHNGKVTHVTVDTK”, the protease stability score amounted to 0.766.

For the sequence “DETEWREFAEEFIRLFQQGDEDRLRKLIDKNAKIRYGDREVDGRDSIAKQIRDNREQIDRIDLVDMKVRGEHITITIDVDHNGQRRRIVIHINVHNGHIKNVEVDSG”, the protease stability score is 1.02.

“DEHFETVARLMLHALEDNNPEVLRENLDPNARVQVGDQDLTGRDTVVKVAHRLLTEIRIHIQIDSVRNQGDTVEFDAKFRANVNGRPYSVKVVIVYVVRNGRAVHIQVRMDPDFLRKLRK”: the protease stability score was determined as 0.938.

Consider “DTQKIVDDIAHEVVEVLKTGDPRKVVKLVDENARLQVGDKIVRGREDVKKRAEKENSRVDHREARVQEVTMHNGDVTIRFRVKDTHNGRSDSREYTIHLQEHDGKVFIQNMEDR”, for which the protease stability score is -0.261.

Take “DEDTLRTQEEQFKRNNPDDLKKQFDPNAKIRYGDKEITGREDLKKFIDKLRKRIDHYRVRSINIKGEHVRADVVVVVDGRHVRYKVIRHLDNGKVKSLEVKFTSEEQEKKFKEALD”: the protease stability score amounted to 0.261.

The sequence “DEERMHRLKKLFDTNDNEQMSKQASENARMQVGNKVFHGREDIEKFILEERRRADHITYKHVTEHGNKVQAHVVKVVNGRSIDVIFEVEIDNGRIKRMSIQARDSEDQNKAEKALS” displayed a protease stability score of 0.345.

Turning to “DEELIKLAHELLRVFRRGDEDRFRQLVDPNARLQVGDTTLHGRENLAHHLRQVREHIRVDIKIDSMTAKGNKVDIKAKMNLEHNGRPDEKTVNFNVDVHNGKVHQMSFDVDS”, the protease stability score was 0.714.

For the sequence “EEQLKHRLRTYIEALQTGDEKKMVEMVDPNAHIRVGDSTIHGREELRKWVQHLQREIRFQVKIRSIDVSGEHLDVKAEVRYDFNGQPVRDTLNISAEASNGTFTDLRLHIDEDVLRKIKS”, the protease stability score stood at 1.16.

Consider “EEHMEDSFRKWKDNLRTNDEKSLEKMADPNATFDVGDKRFRGMHKYVHDLVNTLRSMRVDIKINSIDVQGDKIKARAQATVYHNGRPQRYTFSFEIKINNGHIQRLVRKDDQ”, for which the protease stability score is -0.035.

In turn, “DDEAKDIVEEVVREGDFRQHMRLADEDAKLEYGDKRLHGRERVSDMAQKINERVDHLEVESVSVRGEEVIITLVLNVDGQKFRMKLVMDVQGDKIKSVKLEARTEDNKKLMDRAFS” gave a protease stability score of 0.012.

Consider “DDHAADVMRKWFEALSSGNPDQAKKNLDPNAKVQIGDKTLHGREQVSQHVREQKEEIRFEIQSVDVRKEPGQVTVTMVYVSHFNGQPRRDTDTFFADVHGDKIKSVHIRVDEKQKQRERD”, for which the protease stability score is -0.495.

Consider “DEEANDLFRQIQTAENDNNPDEITELFDENATFRVGDRVIKGREKYAHKVVENLQKWRFTWDRIDVKARNGHARVTIRMTFNVNGKPDSYQAVMHLQFSNGRVQEIHMDIDPRKAKELLK”, for which the protease stability score came to 0.124.

For the sequence “DDDAVRRMKEFEEAKQHGDPDELRRLADPNVRLEYGDKEIHGRDTMAQTLKNEVDEIRMEVDFRHFTSQGDKVSIQAEQSRDNNGQPQSVKAQFDARFHNGRLKHLRVQLDG”, the protease stability score is 0.114.

“DERKRAKKALDDLKHAMHSNDPDKQKELMDENVELKYGDRHVNGREQANQHAEEHFERADHLDQKIQTWDIHNGKVSVTFTMTIEFNGRRENIQVQVTFDTVDGRLRIRTAREK”: the protease stability score worked out at 0.525.

With “DETDQVETLLKRFKEAVDHGDKHQARHLFRDDVRIKYGDKEIHGRDNLAHWIVDRARRADHVDFTIRQFDVRNGRVSVDVEVRYDVNGKHDHKRYTLRADLRNGRATAVTIEVR”, the protease stability score stood at 0.344.

As for “DHDAKKRIHQLWHALQTGNPDEVVKQVDKDVKVRVGEKDIHGRDQVREDVEREQKDMRVEYKSIRVEMNGDKARVEVHYQHERDGQPRTHRADYEIKWQNGKVKEMRASQKP”, the protease stability score is -0.244.

As to “DEDATDNVRQWFEARNQNDENRLMQLVDPNAKIQVGDKFVHGKEDLEKQVKREKDQIHLHMKDMKFTDTGDTVKVRIDYRDEHNGRPKEDRMVAYATVHNGRIENLEVDSDR”, the protease stability score was -0.179.

On to “DDRDKVKSLWKQMLTILRTGDHKRWNKLVDKDVKYNIGDKSIHGKEEAEKLVKKIKDKVDTVSQTIVDVQNHNGRIHLRLRMVNNFNGNHNTYEVNAQFEKKNGRVKMQNQTDN”, for which the protease stability score stood at 0.149.

As for “DHENKKRVEEFLKALERNDPERLNHLMDPNVNIIVGDQRFHGREDAARNMAHEQKEQRFEVEDYRISVHGDDVRVEMIVQAEINGRPFRFTLIVYARIHDGRIQTIEFRIDEDEKRRMDQ”, the protease stability score worked out at 0.895.

For the sequence “DDREVDKVEELLKTGDFLKMANRADKNARMQIGDKEYRGREHVQDAAKRLDRQVDTEKVTDLRTDGEKVLVHYIQHFDGQNLEVDVEFHFHNGRLQEVVFHVRDPKKQKEFDKRVG”, the protease stability score is -0.235.

In the case of “DESLQHMAEEMLEVWQTGDKERAATMMDKDARVRVGDHTVRGRESLQKNIETEKEQMRVQIRHVDARVHNGRVDVKVEVELDHNGKPQRVVYNIDFRAHNGRVQEIHIQEDG”, the protease stability score was -0.181.

“DEEDQKHAESFFRNLINNNPEKLKEMADPNAEFEVGDKTLNGTEDLSKWAQKLKDQARMSIQSLTIRVENGRLSATMTFEVEHNGQPDRMKITAHASITNGKITHFMLRLDPKQYKSWVG” had a protease stability score of 0.493.

Consider “DHEEQMEKFIKTLKKLMKNNDWETWASLADPNAEARYGDSEYHGREKIVTHMRKLQEHVDHADLKFRSVSLRNGEVTMRISFHVKVNGTDQSHEAKLVLEIDNGRAVIKKMVLD”, for which the protease stability score was found to be 0.795.

With “DDKKQQNMAKHFADAIRRGDPKTFSDLADPNVTAQYGDKSIHGKDEMREFWKQYHDRVDSVDVEKFSVRGDKIDIKMRAVVDGKDRVLDLDIQLHNGRATHIKVNPDQVREMDK”, the protease stability score worked out at 1.38.

“DDRDLKRMADVLKTGDPDKLNENADKDAQVHVGNKRVHGREQFHEYQRRLREQIDHLHVKHIEITENKARIDYEFHVNGQKFSFTLTFQAHDGKLKRMSATFTSEEEEKRWDEIVD” came in with a protease stability score of 0.302.

“DEEEDEKFVEFLKNVERGNEDKLRELVPPDAKNQVGDTVVEGRDEWLKKLTSELKKSRVTYNVKSVSASNGRMSLVVDVTVDENGRPQKRDLRIDATVHNGKWQKVHLKFDS” registered a protease stability score of 0.342.
